Test in all cases: enzyme inhibition kinetics
The target of experiment [1] is factor XIa catalytic domain K170A (human) (UniProt P03951).
In experiment [2] the target is factor XIa catalytic domain K179A (human).
Experiment [3] deals with factor XIa catalytic domain R173A (human) (UniProt P03951).
Experiment [4] concerns the target full-length factor XIa autolysis loop variant fXIa-144-149A (human).
For experiment [5] the target is unchanged. The source holds these as a separate data set.

This note sets out measurements from paper PMC2654577.

Where two headings read alike, the source gives them in different places.

B1: C1-inhibitor (natural protein)
chain: NPNATSSSSQDPESLQDRGEGKVATTVISKMLFVEPILEVSSLPTTNSTTNSATKITANTTDEPTTQPTTEPTTQPTIQPTQPTTQLPTDSPTQPTTGSFCPGPVTLCSDLESHSTEAVLGDALVDFSLKLYHAFSAMKKVETNMAFSPFSIASLLTQVLLGAGENTKTNLESILSYPKDFTCVHQALKGFTTKGVTSVSQIFHSPDLAIRDTFVNASRTLYSSSPRVLSNNSDANLELINTWVAKNTNNKISRLLDSLPSDTRLVLLNAIYLSAKWKTTFDPKKTRMEPFHFKNSVIKVPMMNSKKYPVAHFIDQTLKAKVGQLQLSHNLSLVILVPQNLKHRLEDMEQALSPSVFKAIMEKLEMSKFQPTLLTLPRIKVTTSQDMLSIMEKLEFFDFSYDLNLCGLTEDPDLQVSAMQHQTVLELTETGVEAAAASAISVARTLLVFEVQQPFLFVLWDQQHKFPVFMGRVYDPRA
As for B1, the k2 (second-order inhibition rate constant) was determined as 10000 M⁻¹ s⁻¹ in experiment [1]; 8800 M⁻¹ s⁻¹ in experiment [2]; 9100 M⁻¹ s⁻¹ in experiment [3]; 19500 M⁻¹ s⁻¹ in experiment [4]; 600 M⁻¹ s⁻¹ in experiment [5].
